Measurements from US12492236B2, “Fusion proteins for the treatment of cardiometabolic diseases” (Shattuck Labs, Inc., priority 2022, dated 2025).

How the values were obtained:
recombinant human GDF-8 = target: T1, recombinant human GDF-8 (Homo sapiens, UniProt O14793); assay: MSD platform-based binding assay on plate-bound GDF-8; conditions: MSD signal, serial dilutions
T1 sequence (O14793 267-375): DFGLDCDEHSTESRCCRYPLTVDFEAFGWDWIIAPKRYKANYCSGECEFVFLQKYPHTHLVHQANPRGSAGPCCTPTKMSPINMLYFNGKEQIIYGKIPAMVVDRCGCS
Description: The binding by a recombinant human ACVR2B-Fc fusion protein to GDF-8 (also known as myostatin) was characterized using a Meso Scale Discovery (MSD) platform-based assay. Briefly, GDF-8 was coated on a plate and 8× serial dilutions of the purified recombinant human ACVR2B-Fc fusion protein were also added in a series of wells. The protein captured by the plate-bound GDF-8 was detected using an anti-human Fc antibody and a SULFO-TAG conjugated secondary antibody.
(§1) The binding to GDF-8 by the GLP-1-Fc-ACVR2B fusion protein produced using the mmRNA constructs was investigated using a Meso Scale Discovery (MSD) platform-based assay. Briefly, HEK293T cells were transfected with each mRNA construct using lipofectamine 2000, and culture supernatants were collected after 48 hours. GDF-8 was coated on a plate, and 3× serial dilutions of the culture supernatants were added to the plate for capture by the plate-bound GDF-8. The protein captured by the plate-bound GDF-8 was detected using an anti-human Fc antibody and a SULFO-TAG conjugated secondary antibody. The MSD signals generated by the culture supernatants of HEK293T cells transfected with different mmRNA constructs were plotted as a line graph.

[1] = target: T2, recombinant human Activin A (Homo sapiens, UniProt P08476); assay: MSD platform-based binding assay on plate-bound Activin A; conditions: MSD signal, serial dilutions
T2 sequence (P08476 311-426): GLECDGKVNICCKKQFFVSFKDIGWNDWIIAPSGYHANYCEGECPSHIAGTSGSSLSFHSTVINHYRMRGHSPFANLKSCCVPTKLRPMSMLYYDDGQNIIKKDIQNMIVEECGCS
Description: The binding by a recombinant human ACVR2B-Fc fusion protein to activin A (also known as Inhibin beta A) was characterized using a Meso Scale Discovery (MSD) platform-based assay. Briefly, Activin A was coated on a plate and 8× serial dilutions of the purified recombinant human ACVR2B-Fc fusion protein were also added in a series of wells. The protein captured by the plate-bound Activin A was detected using an anti-human Fc antibody and a SULFO-TAG conjugated secondary antibody.
as §1, with “Activin A” for “GDF-8”, “Activin A.” for “GDF-8.”

Substance: GLP-1-Fc-ACVR2B: GLP-1 fused to ACVR2B extracellular domain via IgG1 hinge-CH2-CH3 Fc domain; SEQ ID NO: 154
- binding to GDF-8 (recombinant human GDF-8): binds to the human GDF-8
- binding to Activin A [1]: binds to the human Activin A
